Results published in patent US20040260069A1 (Merck KGaA, published 2004).

Assays:
[1] = biological target: T1, TNF alpha (PeproTech EC Ltd, London, UK) (human, UniProt P01375 77-233); assay: plate ELISA, TNF alpha coated at 2.5 µg/ml, anti-human IgG-HRP detection
T1 construct: also called tumor necrosis factor alpha

biotinylated TNF alpha = biological target: T2, biotinylated TNF alpha (human, UniProt P01375 77-233, biotinylated using EZ link Sulfo-NHS-biotin (sites not given)); assay: competition ELISA, antibody against plate-bound TNF alpha RII-Fc for biotin-TNF alpha
T2 construct: also called biotin-TNF alpha
T2 sequence (P01375 77-233 limits assumed): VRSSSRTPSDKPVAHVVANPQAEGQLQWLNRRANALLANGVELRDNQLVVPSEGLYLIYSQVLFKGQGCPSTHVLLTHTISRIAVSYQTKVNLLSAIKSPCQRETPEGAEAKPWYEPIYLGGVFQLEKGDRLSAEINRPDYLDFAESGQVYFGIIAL

T1 sequence (P01375 77-233 limits assumed): as above

binding result [1]: binds | binding result (biotinylated TNF alpha): binds
B1: modified anti-TNF alpha antibody Vh5/Vk12 (antibody, human IgG1, V domains shown)
VH: EVKLEESGGGLVQPGGSLRLSCAASGFTFSNHWMNWVRQSPEKGLEWVAETRSKSTNSATHYAESVKGRFTISRDDSKNSLYLQMNSLKTEDTGVYYCSRNYYGSTYDYWGQGTTVTVSS
VL: DIQLTQSPDTSSASPGERASFSCRASQFVGSSIHWYQHTTNGSPRLLIKYASESMSGVPSRFSGSGSGTDFTLTINSLEAEDAATYYCQQSHSWPFTFGSGTNLEVKR
notes: Expressed in NS/0 cells as whole antibody with a human IgG1 constant region (vector pSVgpt) and a human kappa constant region (vector pSVhyg); also called modified antibody of the invention; preferred antibody of the present invention
